{"source": "patent US8349320", "key": {"[1]": {"molecular_target": "mouse HVEM-Fc (mouse; human) (UniProt Q80WM9)", "sequence (Q80WM9 39-206 limits assumed)": "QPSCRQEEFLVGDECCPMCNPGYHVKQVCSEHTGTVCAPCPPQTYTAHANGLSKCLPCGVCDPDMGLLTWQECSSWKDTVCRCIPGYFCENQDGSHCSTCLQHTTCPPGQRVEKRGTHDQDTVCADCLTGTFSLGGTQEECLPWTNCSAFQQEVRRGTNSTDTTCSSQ", "test": "flow cytometry competition, graded soluble gD against 2 µg/ml mHVEM:Fc on hLIGHT-EL4 cells (FIG. 3G)"}, "[2]": {"molecular_target": "mouse HVEM expressed on cells (mouse) (UniProt Q80WM9)", "sequence (Q80WM9 39-275)": "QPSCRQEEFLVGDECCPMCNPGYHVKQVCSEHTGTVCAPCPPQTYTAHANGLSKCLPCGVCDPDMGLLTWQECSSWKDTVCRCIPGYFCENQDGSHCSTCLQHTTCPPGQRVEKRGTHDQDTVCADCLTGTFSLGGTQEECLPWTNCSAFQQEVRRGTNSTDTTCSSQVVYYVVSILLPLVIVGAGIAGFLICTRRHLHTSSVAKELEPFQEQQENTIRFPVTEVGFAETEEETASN", "test": "flow cytometry competition, graded soluble gD against 1.4 µg/ml mBTLA-T on mHVEM-HEK293 cells (FIG. 3G)"}}, "note": "pKd: −log10 of the molar value."}
{"substance": "purified recombinant soluble gD (gD-1Δ290-299)", "values": [{"measurement": "pKd", "setting": "[1]", "value": 6.60}, {"measurement": "pKd", "setting": "[2]", "value": 6.60}]}
